Assay results reported in patent US20250002564A1.

Legend:
mouse FcRn (mouse) [1] = target: mouse FcRn (mouse) (UniProt Q61559)
mouse FcγRI (mouse) = mouse FcγRI (mouse) (UniProt P26151)
mouse FcRn (mouse) [2] = target: mouse FcRn (mouse) (UniProt Q61559); assay: pH 5.6

mouse FcγRI (mouse), sequence (P26151 25-297 limits assumed): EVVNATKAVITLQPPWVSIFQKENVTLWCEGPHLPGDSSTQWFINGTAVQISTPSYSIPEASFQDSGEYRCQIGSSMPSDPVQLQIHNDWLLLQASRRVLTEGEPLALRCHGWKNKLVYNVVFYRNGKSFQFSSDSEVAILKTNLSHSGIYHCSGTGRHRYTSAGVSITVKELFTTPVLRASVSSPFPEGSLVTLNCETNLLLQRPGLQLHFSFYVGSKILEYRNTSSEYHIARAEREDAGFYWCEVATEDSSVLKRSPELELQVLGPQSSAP

kon (mouse FcRn (mouse) [1]) [M⁻¹ s⁻¹]	Kd (mouse FcγRI (mouse)) [pM]	koff (mouse FcγRI (mouse)) [s⁻¹]	kon (mouse FcγRI (mouse)) [M⁻¹ s⁻¹]	Kd (mouse FcRn (mouse) [2]) [pM]	koff (mouse FcRn (mouse) [2]) [s⁻¹]	Substance
682000	< 1	< 1e-07	939000	< 1	< 1e-07	mouse surrogate Multabody (HD37 IgG2a scFab and scFc on mouse apoferritin light chain), wild-type Fc
2.4e+06	–	–	–	< 1	< 1e-07	mouse surrogate Multabody with LALAP Fc
